Assay results published in the Immune Epitope Database (IEDB).
Values belong to the sequence of their own block, whether it stands above or below them.

What was measured:
HLA-A*32:01 = test: IEDB peptide-MHC binding, purified MHC/competitive/radioactivity; filed as Kd, often an IC50 or EC50 that approximates it; ≥ and ≤ were set here for values at or beyond the usual limits of such assays
HLA-B*15:03 = test: as above
HLA-B*15:01 [1] = test: as above
HLA-B*15:01 [2] = test: IEDB peptide-MHC binding, purified MHC/competitive/fluorescence; filed as Kd, often an IC50 or EC50 that approximates it; ≥ and ≤ were set here for values at or beyond the usual limits of such assays
HLA-B*07:02 = test: IEDB peptide-MHC binding, purified MHC/direct/fluorescence; filed as Kd, often an IC50 or EC50 that approximates it; ≥ and ≤ were set here for values at or beyond the usual limits of such assays
HLA-B*51:01 [3] = test: as above
HLA-A*30:01 = test: IEDB peptide-MHC binding, purified MHC/competitive/radioactivity; filed as Kd, often an IC50 or EC50 that approximates it; ≥ and ≤ were set here for values at or beyond the usual limits of such assays
HLA-B*08:01 [4] = test: as above
HLA-A*69:01 [5] = test: IEDB peptide-MHC binding, purified MHC/direct/fluorescence; filed as Kd, often an IC50 or EC50 that approximates it; ≥ and ≤ were set here for values at or beyond the usual limits of such assays
HLA-A*02:11 = test: as above
HLA-A*02:12 = test: as above
HLA-A*03:01 [6] = test: IEDB peptide-MHC binding, purified MHC/competitive/fluorescence; filed as Kd, often an IC50 or EC50 that approximates it; ≥ and ≤ were set here for values at or beyond the usual limits of such assays
HLA-B*27:03 = test: as above
HLA-A*69:01 [7] = test: as above; settings: source organism: Homo sapiens
HLA-A*26:01 = test: as above
HLA-B*46:01 [8] = test: as above; settings: source organism: Homo sapiens
HLA-B*15:17 = test: as above; settings: source organism: Homo sapiens
HLA-B*51:01 [9] = test: as above; settings: source organism: Homo sapiens
HLA-B*57:01 [10] = test: as above; settings: source organism: Homo sapiens
HLA-B*18:01 = test: as above
HLA-B*39:01 = test: as above
HLA-A*31:01 [11] = test: as above; settings: source organism: Escherichia coli E22
HLA-B*08:02 = test: IEDB peptide-MHC binding, purified MHC/direct/fluorescence; filed as Kd, often an IC50 or EC50 that approximates it; ≥ and ≤ were set here for values at or beyond the usual limits of such assays; settings: source organism: Vibrio vulnificus CMCP6
HLA-B*08:01 [12] = test: as above
HLA-A*24:02 = test: IEDB peptide-MHC binding, purified MHC/competitive/fluorescence; ≥ and ≤ were set here for values at or beyond the usual limits of such assays; settings: source organism: Sudan ebolavirus
HLA-A*02:01 = test: IEDB peptide-MHC binding, purified MHC/competitive/fluorescence; filed as Kd, often an IC50 or EC50 that approximates it; ≥ and ≤ were set here for values at or beyond the usual limits of such assays; settings: source organism: Zaire ebolavirus
HLA-A*24:03 = test: IEDB peptide-MHC binding, purified MHC/direct/fluorescence; filed as Kd, often an IC50 or EC50 that approximates it; ≥ and ≤ were set here for values at or beyond the usual limits of such assays; settings: source organism: Zaire ebolavirus
HLA-A*68:02 = test: as above; settings: source organism: Zaire ebolavirus
HLA-B*46:01 [13] = test: as above; settings: source organism: Zaire ebolavirus
HLA-B*48:01 = test: as above; settings: source organism: Zaire ebolavirus
HLA-A*01:01 = test: as above; settings: source organism: Zaire ebolavirus
HLA-A*31:01 [14] = test: as above; settings: source organism: Zaire ebolavirus
HLA-B*57:01 [15] = test: as above; settings: source organism: Zaire ebolavirus
HLA-A*11:01 = test: as above
HLA-A*03:01 [16] = test: as above
HLA-B*58:01 = test: as above; settings: source organism: Zaire ebolavirus
HLA-B*27:05 = test: as above; settings: source organism: Zaire ebolavirus
HLA-A*29:02 = test: as above; settings: source organism: Zaire ebolavirus
HLA-B*15:01 [17] = test: as above; settings: source organism: Zaire ebolavirus
HLA-B*83:01 = test: IEDB peptide-MHC binding, purified MHC/competitive/fluorescence; filed as Kd, often an IC50 or EC50 that approximates it; ≥ and ≤ were set here for values at or beyond the usual limits of such assays
HLA-B*45:06 = test: as above
HLA-B*15:42 = test: as above
[18] = source organism: Vaccinia virus Copenhagen
[19] = source organism: Vibrio vulnificus
[20] = source organism: Vaccinia virus
[21] = source organism: Mycobacterium tuberculosis str. Haarlem
[22] = source organism: Escherichia coli E22
[23] = source organism: Vaccinia virus WR
[24] = source organism: Zaire ebolavirus
[25] = source organism: Mycobacterium tuberculosis variant bovis BCG str. Pasteur 1173P2
[26] = source organism: Camelpox virus CMS
[27] = source organism: Brucella abortus

Sequence: VSFSPSLTF
Kd (HLA-A*32:01; [18]): 736 nM
Kd (HLA-B*15:03; [18]): 1.22 nM
Kd (HLA-B*15:01 [1]; [18]): 1.26 nM

Sequence: NAFGWENAY
Kd (HLA-B*15:01 [2]; source organism: Vibrio vulnificus YJ016): 1320 nM
Kd (HLA-B*07:02; [19]): 350 nM
Kd (HLA-B*51:01 [3]; [19]): ≥ 20000 nM

Sequence: QTIVFIWFI
Kd (HLA-A*32:01; [20]): 1760 nM
Kd (HLA-B*15:03; [20]): 1030 nM
Kd (HLA-A*30:01; [20]): 6240 nM
Kd (HLA-B*08:01 [4]; [20]): 16900 nM
Kd (HLA-B*15:01 [1]; [20]): 253 nM

Sequence: LLDEGKQSL
Kd (HLA-A*69:01 [5]; source organism: Mycobacterium tuberculosis): 7000 nM
Kd (HLA-A*02:11; [21]): 4 nM
Kd (HLA-A*02:12; [21]): 4 nM

Kd (HLA-A*03:01 [6]; source organism: Escherichia coli B7A): 1780 nM
Sequence: LMMTATGEY

Kd (HLA-B*27:03; source organism: Homo sapiens): ≥ 20000 nM
Kd (HLA-A*69:01 [7]): ≥ 20000 nM
Kd (HLA-A*26:01; source organism: Homo sapiens): ≥ 20000 nM
Kd (HLA-B*46:01 [8]): ≥ 20000 nM
Kd (HLA-B*15:17): ≥ 20000 nM
Kd (HLA-B*51:01 [9]): ≥ 20000 nM
Kd (HLA-B*57:01 [10]): ≥ 20000 nM
Kd (HLA-B*18:01; source organism: Homo sapiens): ≥ 20000 nM
Kd (HLA-B*15:01 [2]; source organism: Homo sapiens): ≥ 20000 nM
Kd (HLA-B*39:01; source organism: Homo sapiens): ≥ 20000 nM
Sequence: SLGDPLHQA

Kd (HLA-A*31:01 [11]): 394 nM
Kd (HLA-A*03:01 [6]; [22]): ≥ 20000 nM
Kd (HLA-B*15:01 [2]; [22]): ≥ 20000 nM
Sequence: EMFIIKYFK

Sequence: LPDLPTTTI
Kd (HLA-B*51:01 [3]; source organism: Staphylococcus aureus): 922 nM

Sequence: KSVEDVSAF
Kd (HLA-B*15:03; [23]): 13.6 nM

Sequence: RGRKRFHTL
Kd (HLA-B*08:02): 6760 nM
Kd (HLA-B*08:01 [12]; source organism: Vibrio vulnificus CMCP6): 9 nM

Sequence: HLYNILNNI
Kd (HLA-A*32:01; [23]): 72.6 nM
Kd (HLA-B*15:03; [23]): 1400 nM
Kd (HLA-A*30:01; [23]): 1450 nM
Kd (HLA-B*08:01 [4]; [23]): 1970 nM
Kd (HLA-B*15:01 [1]; [23]): 1480 nM

Sequence: YDRLASTVI
IC50 (HLA-A*24:02): 2490 nM
Kd (HLA-B*27:03; [24]): ≥ 20000 nM
Kd (HLA-A*26:01; [24]): ≥ 20000 nM
Kd (HLA-A*02:01): ≥ 20000 nM
Kd (HLA-B*18:01; [24]): ≥ 20000 nM
Kd (HLA-B*39:01; [24]): ≥ 20000 nM
Kd (HLA-A*24:03): ≥ 20000 nM
Kd (HLA-A*69:01 [5]; [24]): ≥ 20000 nM
Kd (HLA-A*68:02): ≥ 20000 nM
Kd (HLA-A*02:11; [24]): ≥ 20000 nM
Kd (HLA-B*46:01 [13]): ≥ 20000 nM
Kd (HLA-B*48:01): ≥ 20000 nM
Kd (HLA-A*01:01): ≥ 20000 nM
Kd (HLA-B*07:02; [24]): ≥ 20000 nM
Kd (HLA-A*31:01 [14]): ≥ 20000 nM
Kd (HLA-B*57:01 [15]): ≥ 20000 nM
Kd (HLA-A*11:01; [24]): ≥ 20000 nM
Kd (HLA-A*03:01 [16]; [24]): ≥ 20000 nM
Kd (HLA-B*08:01 [12]; [24]): ≥ 20000 nM
Kd (HLA-A*02:12; [24]): ≥ 20000 nM
Kd (HLA-B*58:01): ≥ 20000 nM
Kd (HLA-B*27:05): ≥ 20000 nM
Kd (HLA-A*29:02): ≥ 20000 nM
Kd (HLA-B*15:01 [17]): ≥ 20000 nM

Sequence: FKFNSQVSI
Kd (HLA-B*15:03; [23]): 1.24 nM

Sequence: KTLKYSNKI
Kd (HLA-A*32:01; [23]): 1.9 nM
Kd (HLA-B*15:03; [23]): 448 nM
Kd (HLA-A*30:01; [23]): 37.5 nM
Kd (HLA-B*08:01 [4]; [23]): 1180 nM
Kd (HLA-B*15:01 [1]; [23]): 123 nM

Sequence: RQSSCKMAL
Kd (HLA-B*15:03; [23]): 18.8 nM

Sequence: ITHPKYRKK
Kd (HLA-A*03:01 [6]; source organism: Vibrio antiquarius): ≥ 20000 nM

Sequence: ALTKNYLSF
Kd (HLA-B*15:03; [23]): 40.1 nM

Kd (HLA-A*03:01 [6]; [22]): 211 nM
Sequence: SVFESWLEK

Sequence: HPVTATISF
Kd (HLA-B*83:01; [25]): 616 nM
Kd (HLA-B*45:06; [25]): ≥ 5000 nM
Kd (HLA-B*15:42; [25]): ≥ 5000 nM

Sequence: NKFFEVIFF
Kd (HLA-B*15:03; [23]): 18.8 nM

Sequence: LIPFLILFI
Kd (HLA-A*32:01; [18]): 12100 nM
Kd (HLA-B*15:03; [18]): 195 nM
Kd (HLA-A*30:01; [18]): 97 nM
Kd (HLA-B*08:01 [4]; [18]): 49.7 nM
Kd (HLA-B*15:01 [1]; [18]): 471 nM

Sequence: LMYPTTLLK
Kd (HLA-B*83:01; [23]): ≥ 5000 nM
Kd (HLA-B*45:06; [23]): ≥ 5000 nM
Kd (HLA-B*15:42; [23]): ≥ 5000 nM
Kd (HLA-A*11:01; [26]): 2.2 nM
Kd (HLA-A*03:01 [16]; [26]): 4.5 nM

Sequence: SPGIRPRFL
Kd (HLA-A*32:01; [18]): 2810 nM
Kd (HLA-B*15:03; [18]): 10300 nM
Kd (HLA-A*30:01; [18]): 8430 nM
Kd (HLA-B*08:01 [4]; [18]): 55.8 nM
Kd (HLA-B*15:01 [1]; [18]): 1920 nM

Sequence: AKSKFPRSM
Kd (HLA-B*15:03; [23]): 0.261 nM

Sequence: RPNPDFNTF
Kd (HLA-B*15:01 [2]; source organism: Brucella melitensis bv. 1 str. 16M): 3000 nM
Kd (HLA-B*07:02; [27]): 12.6 nM
Kd (HLA-B*51:01 [3]; [27]): ≥ 20000 nM

Sequence: SQVSSTELF
Kd (HLA-B*15:03; [23]): 1.83 nM
